From publication PMC7035975 (Journal of molecular and cellular cardiology, 2019) come the findings set out here.

The series deals with the molecule itself. Briefly: SDS-PAGE and immunoblot of the PLB pentamer.

B1: L31A phospholamban mutant (untagged) (natural protein, human, UniProt P26678 1-52, looked up)
chain: MEKVQYLTRSAIRRASTIEMPQQARQKLQNAFINFCLILICLLLICIIVMLL
For B1, the “stoichiometry N” value came to 5.
